Assay results published in paper PMC4585971, “Functional Analyses of the Toxoplasma gondii DNA Gyrase Holoenzyme: A Janus Topoisomerase with Supercoiling and Decatenation Abilities” (Scientific Reports, 2015).

How the values were obtained:
[1] = test system: Nc1ncnc2c1ncn2[C@@H]1O[C@H](COP(=O)(O)OP(=O)(O)OP(=O)(O)O)[C@@H](O)[C@H]1O; assay: purified protein; conditions: Mg2+
[2] = molecular target: T1, EcGyrB (Escherichia coli, UniProt P0AES6); assay: native PAGE, nucleotide-induced dimerisation ([…] AMPPNP); type: binding
T1 construct: gene gyrB

Row | Molecule | Km [1] | native PAGE, nucleotide-induced dimerisation (4 mM AMPPNP) [2]
1 | EcGyrB (Escherichia coli K-12) | 540 ± 50 µM | 
2 | Nc1ncnc2c1ncn2[C@@H]1O[C@H](CO[P@](=O)(O)O[P@](=O)(O)NP(=O)(O)O)[C@@H](O)[C@H]1O [AMPPNP] |  | This dimerisation pattern (monomer in the absence of nucleotide, dimer in the presence) is the same as for EcGyrB.
